Data from the supplement of paper PMC12042874.
± gives the uncertainty stated by the source.

Assay: amyloid nucleation score (Sup35N fusion, yeast selection) (log enrichment); library NNK1; higher = more nucleation; inactive = no reads after selection
Method in brief: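 The nucleation score is a DiMSum log enrichment of output over input reads, centred on the mode score of non-aggregating sequences. Sequences under 100 input reads were excluded, and reads came from Illumina sequencing of plasmid inserts. Psi-negative yeast expressing Sup35N fused to peptides of 20 random codons were induced with 100 μM copper sulfate for 24 hours and grown 7 days at 30°C on medium lacking adenine and uracil. Random libraries had three technical output replicates.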

Compared with AGLMTGATSLQLMKFCSLGG, AGNFVVPMDAE is higher in amyloid nucleation score: -0.729 ± 0.71 for the first, 1.62 ± 0.41 for the second.

AGSFFSYGQFVKFTVLYHSE and AGSGRGRGGCTSNRSDYSSG are within error of each other in amyloid nucleation score: -0.053 ± 0.6 for the first, -0.849 ± 1 for the second.

AGVAGL and AGYFCL are within error of each other in amyloid nucleation score: -0.661 ± 0.4 for the first, -0.449 ± 0.47 for the second.

First: AHFVRVDHNGGGLCMLGISR
Second: AHGRHDLRWCLRSRDSMWRA
The amyloid nucleation score of the first is lower: -1.21 ± 0.86 for the first, 1.2 ± 0.53 for the second.

AHLEGYYHWHYSEFWSVVVK and AIFNLVSSL are within error of each other in amyloid nucleation score: -0.437 ± 0.31 for the first, -0.792 ± 1 for the second.

Going from AIRPSIR to AISYDTYYTGELSSLWSGLS, the amyloid nucleation score rises from -0.318 ± 0.33 to 0.666 ± 0.57.

AIVYRQKLISQLYFARLLRH and AKCGICLFYGM are within error of each other in amyloid nucleation score: 0.063 ± 1.4 for the first, -0.358 ± 0.36 for the second.

AKLMGCYMQRSICITRVPFL and ALCYWNSTVD are within error of each other in amyloid nucleation score: 0.702 ± 0.51 for the first, -0.057 ± 0.41 for the second.

ALEWHGQTYSFRIEI and ALFGERPCCRC are within error of each other in amyloid nucleation score: 0.537 ± 0.36 for the first, 0.158 ± 0.28 for the second.

First: ALGYIPPRRCMTGSPPSVPR
Second: ALNFTYLVSSNKHRSED
The amyloid nucleation score of the first is lower: 0.529 ± 0.84 for the first, 5.12 ± 0.1 for the second.

ALQTPFSKNMEYCCNQ and ALRAP are within error of each other in amyloid nucleation score: 0.222 ± 0.41 for the first, -0.383 ± 0.62 for the second.

ALSLVISCSGSWRKGRRFLS and ALWNLCCHLGDGTAADSTVY are within error of each other in amyloid nucleation score: -0.53 ± 0.64 for the first, -0.46 ± 1.9 for the second.

ALYSDRDI and AMQKESRGTWGSVTAQVHGM are within error of each other in amyloid nucleation score: 0.939 ± 0.29 for the first, 0.304 ± 0.59 for the second.

First: ANDMMRKDCTFDTSVFMESV
Second: ANKLCSVKQQTPRLRWYMGS
The amyloid nucleation score of the first is lower: -0.379 ± 0.26 for the first, 0.856 ± 0.48 for the second.

ANLACACCCYP and ANLDYWRSSTFTEHMVGLNR are within error of each other in amyloid nucleation score: -0.146 ± 0.96 for the first, -0.469 ± 1.2 for the second.

ANLKISSALDVVRHRRKYQY and ANSVIFDGRSKGLAKHTVSY are within error of each other in amyloid nucleation score: 0.014 ± 0.54 for the first, -0.276 ± 0.65 for the second.

APEVNRLTCSYRSDRLKTS and APGWTVDTSPYSAGVCVVTP are within error of each other in amyloid nucleation score: 0.095 ± 0.83 for the first, 0.099 ± 0.4 for the second.

Compared with APMHINLWRDGTNVGQDWVV, APRAAN is lower in amyloid nucleation score: 1.88 ± 0.69 for the first, -0.126 ± 0.41 for the second.

Compared with APSNNFCNNGLMFRYVRPGD, APSTDGMNMPTNGDRTPTLW is lower in amyloid nucleation score: 2.81 ± 0.21 for the first, 0.245 ± 0.42 for the second.

APTRACSNGDMLREE and AQAVLQLETRTIKIYRDGPK are within error of each other in amyloid nucleation score: 1.35 ± 0.51 for the first, -1.08 ± 2.7 for the second.

AQKCPALYRLMNMPEKEKVG and AQNLDPQWWCLVRCDCYPL are within error of each other in amyloid nucleation score: 0.18 ± 0.43 for the first, -0.49 ± 0.65 for the second.

ARITMYLCFNRLLVGKVCSG and ARLSL are within error of each other in amyloid nucleation score: -0.176 ± 1.1 for the first, 0.157 ± 0.64 for the second.

ARQGASLGVK and ARVPSKYRVEVHGRKKAWRG are within error of each other in amyloid nucleation score: -1.11 ± 1.5 for the first, -0.814 ± 0.6 for the second.

ARWWVRLEYC and ASCVKYVW are within error of each other in amyloid nucleation score: 0.523 ± 0.29 for the first, 1.31 ± 0.66 for the second.

Compared with ASDLGATKHNLHFIACIFSL, ASFASKARHKR is lower in amyloid nucleation score: 4.77 ± 0.074 for the first, 0.728 ± 0.87 for the second.

ASFGGINLPL and ASFITGWMANTYN are within error of each other in amyloid nucleation score: -0.236 ± 0.41 for the first, 0.385 ± 0.42 for the second.

First: ASGKYNRLCIGFVWGCEQGM
Second: ASGSI
The amyloid nucleation score of the first is higher: 2.12 ± 0.26 for the first, -1.32 ± 2.4 for the second.

ASIYCWLLNRHLDDDFLWLS and ASMLFRSHQCCLIHSGADIN are within error of each other in amyloid nucleation score: -0.702 ± 1.9 for the first, 0.979 ± 0.29 for the second.

ASNGVN and ASPHWGSCNKTLRDGPRQVL are within error of each other in amyloid nucleation score: -0.099 ± 0.5 for the first, -0.677 ± 0.65 for the second.

ASRAFSVVDYSGLLRGS showed an amyloid nucleation score of 0.498 ± 0.61.

With AHLRCDREDIVESTSECGVG the amyloid nucleation score was “inactive”.
For AMDMSADAGDSWNCGCQYSN, the amyloid nucleation score was “inactive”.
For ANTNAFKHLNYILMVLVLQG, the amyloid nucleation score was “inactive”.
With APQSRFNHEYFFENIRRVVV the amyloid nucleation score was “inactive”.
In the case of ASLHHKSWTDHADTMTPPRT, the amyloid nucleation score is reported as “inactive”.
